The target in the assay is TNF (UniProt P01375). The experiment in a line: cell-based or functional assay.
UniProt P01375, sequence (P01375 77-233 limits assumed): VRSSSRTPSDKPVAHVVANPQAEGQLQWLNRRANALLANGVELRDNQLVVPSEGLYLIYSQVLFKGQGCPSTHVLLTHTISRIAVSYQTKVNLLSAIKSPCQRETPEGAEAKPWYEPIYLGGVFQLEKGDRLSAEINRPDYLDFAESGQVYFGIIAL

Substance D2E7 antibody yielded an In vitro TNF neutralization test; with 0.1% polysorbate 80; fast thaw -80° C. in water bath of 95.8, an In vitro TNF neutralization test; with 0.1% polysorbate 80; no freeze/thaw of 112, an In vitro TNF neutralization test; with 0.1% polysorbate 80; slow thaw -30° C. in refrigerator of 96.2 and an In vitro TNF neutralization test; with 0.1% polysorbate 80; slow thaw -80° in refrigerator of 96.7. This substance also gave an In vitro TNF neutralization test; without 0.1% polysorbate 80; fast thaw -30° C. in water bath of 118, an In vitro TNF neutralization test; without 0.1% polysorbate 80; fast thaw -80° C. in water bath of 120, an In vitro TNF neutralization test; without 0.1% polysorbate 80; no freeze/thaw of 118 and an In vitro TNF neutralization test; without 0.1% polysorbate 80; slow thaw -30° C. in refrigerator of 124. Also, the In vitro TNF neutralization test; without 0.1% polysorbate 80; slow thaw -80° in refrigerator was determined as 103.

Source of the values: patent US20040033228A1.
